For four substances, stoichiometry N, percent of the protein as disulfide-bonded circular hexamer after oxidation and percent of the protein as circular hexamer after oxidation results are on record in publication PMC3372766.

One assay concerns the target +315N ClpX^ΔN (E. coli) (UniProt P0A6H1).
The target of assay [1] is T66C P388C ClpX^ΔN (E. coli) (UniProt P0A6H1). The assay is described as follows: cross-linking.
The target in assay [2] is T66C P388C E109C N331C ClpX^ΔN (E. coli) (UniProt P0A6H1). Nature of the assay: cross-linking.
Another assay deals with Δ315N ClpX^ΔN (E. coli) (UniProt P0A6H1).

The stoichiometry N is the number of molecules, sites or subunits per partner or assembly.

In turn, “+315N ClpX^ΔN (from UniProt P0A6H1 61-423) (enzyme)” had a stoichiometry N with +315N ClpX^ΔN (E. coli) of 6.

Turning to “T66C P388C ClpX^ΔN (from UniProt P0A6H1 61-423) (enzyme)”, in assay [1], the percent of the protein as disulfide-bonded circular hexamer after oxidation turned out to be 75% and the stoichiometry N is 6.

On to “T66C P388C E109C N331C ClpX^ΔN (from UniProt P0A6H1 61-423) (enzyme)”, for which, in assay [2], the percent of the protein as circular hexamer after oxidation was > 90% and the stoichiometry N came out at 6.

As to “Δ315N ClpX^ΔN (from UniProt P0A6H1 61-423) (enzyme)”, the stoichiometry N with Δ315N ClpX^ΔN (E. coli) was determined as 6.
